# Assay results reported in PMC3973321 (Nucleic Acids Research, 2014).
# Target: mitochondrial RNA polymerase (POLRMT), residues 42-1230 (human, UniProt O00411 42-1230)
# Test: ITC
# Sequence of mitochondrial RNA polymerase (POLRMT), residues 42-1230 (O00411 42-1230): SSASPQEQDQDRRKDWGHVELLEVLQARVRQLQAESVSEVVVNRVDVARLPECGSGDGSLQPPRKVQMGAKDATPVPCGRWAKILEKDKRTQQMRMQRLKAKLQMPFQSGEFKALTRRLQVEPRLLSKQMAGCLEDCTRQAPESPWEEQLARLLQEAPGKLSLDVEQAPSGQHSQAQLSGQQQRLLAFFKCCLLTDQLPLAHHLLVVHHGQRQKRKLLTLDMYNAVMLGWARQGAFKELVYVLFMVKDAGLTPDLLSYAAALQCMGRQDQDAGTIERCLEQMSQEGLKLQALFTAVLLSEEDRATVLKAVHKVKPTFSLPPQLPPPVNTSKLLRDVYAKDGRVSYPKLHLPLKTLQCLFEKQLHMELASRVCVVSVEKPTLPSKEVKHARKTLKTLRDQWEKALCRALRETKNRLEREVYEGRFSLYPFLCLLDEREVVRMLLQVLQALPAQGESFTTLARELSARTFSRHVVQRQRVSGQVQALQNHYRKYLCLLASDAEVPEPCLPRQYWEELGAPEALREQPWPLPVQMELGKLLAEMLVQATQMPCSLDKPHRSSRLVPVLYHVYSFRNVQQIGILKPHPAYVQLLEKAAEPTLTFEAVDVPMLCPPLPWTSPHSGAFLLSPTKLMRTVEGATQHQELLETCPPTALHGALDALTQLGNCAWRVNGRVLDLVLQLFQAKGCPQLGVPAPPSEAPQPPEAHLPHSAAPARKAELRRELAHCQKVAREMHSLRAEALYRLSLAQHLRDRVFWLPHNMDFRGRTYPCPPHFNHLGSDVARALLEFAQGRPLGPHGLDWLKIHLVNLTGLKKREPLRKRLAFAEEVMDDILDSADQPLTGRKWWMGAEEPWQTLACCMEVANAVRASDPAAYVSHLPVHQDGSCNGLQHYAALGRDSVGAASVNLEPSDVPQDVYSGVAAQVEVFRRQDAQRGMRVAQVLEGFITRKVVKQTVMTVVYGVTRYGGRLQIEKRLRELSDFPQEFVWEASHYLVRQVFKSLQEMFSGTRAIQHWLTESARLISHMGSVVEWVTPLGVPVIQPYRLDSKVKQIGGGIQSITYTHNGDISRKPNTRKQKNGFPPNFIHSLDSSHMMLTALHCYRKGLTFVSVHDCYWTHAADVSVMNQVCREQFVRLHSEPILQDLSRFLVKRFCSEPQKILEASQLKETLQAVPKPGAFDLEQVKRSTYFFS
binder,measurement,value
"TFAM, residues 43-246 (natural protein) SSVLASCPKKPVSSYLRFSKEQLPIFKAQNPDAKTTELIRRIAQRWRELPDSKKKIYQDAYRAEWQVYKEEISRFKEQLTPSQIMSLEKEIMDKHLKRKAMTKKKELTLLGKPKRPRSAYNVYVAERFQEAKGDSPQEKLKTVKENWKNLSDSEKELYIQHAKEDETRYHNEMKSWEEQMIEVGRKDLLRRTIKKQRKYGAEEC",Kd,4.6 µM
same,dH,11.1 kcal/mol
